Tests used:
[1] = biological target: N-methyl-D-aspartate receptor (NMDAR) of C44 murine erythroleukaemia (MEL) cell membranes (mouse (endogenous in C44 MEL cells)) (UniProt P35438)
RAGE (Homo sapiens) = RAGE (Homo sapiens) (UniProt Q15109); conditions: cited from earlier work
UniProt Q15109, sequence (Q15109 23-404): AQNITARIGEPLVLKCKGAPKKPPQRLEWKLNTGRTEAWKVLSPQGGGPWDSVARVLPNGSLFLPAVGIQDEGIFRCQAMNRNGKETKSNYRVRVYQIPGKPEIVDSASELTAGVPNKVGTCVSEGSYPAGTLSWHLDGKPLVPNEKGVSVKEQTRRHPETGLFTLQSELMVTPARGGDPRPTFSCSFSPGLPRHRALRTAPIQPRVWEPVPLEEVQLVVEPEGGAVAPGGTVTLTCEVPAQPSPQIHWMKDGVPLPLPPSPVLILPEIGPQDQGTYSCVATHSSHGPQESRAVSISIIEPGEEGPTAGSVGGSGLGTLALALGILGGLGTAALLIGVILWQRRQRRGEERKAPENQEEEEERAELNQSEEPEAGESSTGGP

HMGB1, sequence (P09429 whole entry): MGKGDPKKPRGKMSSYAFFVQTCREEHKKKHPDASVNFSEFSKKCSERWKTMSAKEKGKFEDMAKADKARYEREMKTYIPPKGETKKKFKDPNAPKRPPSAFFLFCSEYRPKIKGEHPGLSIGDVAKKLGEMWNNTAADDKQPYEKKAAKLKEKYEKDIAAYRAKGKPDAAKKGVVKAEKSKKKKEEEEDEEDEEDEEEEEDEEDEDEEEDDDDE

Row | Substance | percent of differentiated (benzidine-positive) MEL cells after 24 h with HMBA and 250 pM HMGB1 (6% with HMBA alone; the increase abolished by MK-801 and antagonized by CGS 19755) [1] [%] | Kd (RAGE (Homo sapiens)) [nM]
1 | high mobility group box 1 (HMGB1) protein, eukaryotic recombinant (from UniProt P63159 1-215) (natural protein) | 12 | –
2 | HMGB1 (from UniProt P09429) | – | 10

Reference: publication PMC3432114
